From US20250090680A1
Residue numbers refer to the chain shown, from its start.

B1: ARD-103 antibody (IgG) (antibody, V domains shown)
VH: QVQLVESGAEVKKPGASVKVSCKASGYTFTDYEMHWVRQAPGQGLEWMGALDPKTGDTAYSQKFKGRVTLTADKSTSTAYMELSSLTSEDTAVYYCTRFYSYTYWGQGTLVTVSS
VL: DVVMTQSPLSLPVTPGEPASISCRSSQSLVHSNGNTYLHWYLQKPGQSPQLLIYKVSNRFSGVPDRFSGSGSGTDFTLKISRVEAEDVGVYYCSQNTHVPPTFGQGTKLEIKR
B2: P1-A1 IgG variant of ARD-103 (antibody, V domains shown)
VH: B1 VH with K65Q
VL: B1 VL with H31R, S94V
B3: P1-E6 IgG variant of ARD-103 (antibody, V domains shown)
VH: B1 VH with Y60L
VL: B1 VL with Q27S, S94L, T97G, H98I
B4: P1-G5 IgG variant of ARD-103 (antibody, V domains shown)
VH: B1 VH with L51I
VL: B1 VL with H39Q, N96V
B5: P3-F7 IgG variant of ARD-103 (antibody, V domains shown)
VH: B1 VH
VL: B1 VL with H39Q, S94V, N96V
B6: P1-D6 IgG variant of ARD-103 (antibody, V domains shown)
VH: B1 VH with E6Q, K13N, K54F
VL: B1 VL with S94L, T97G, H98Y
B7: P1-B9 IgG variant of ARD-103 (antibody, V domains shown)
VH: B1 VH with Y60L
VL: B1 VL with H39Q, S94G, N96V
B8: P3-A1 IgG variant of ARD-103 (antibody, V domains shown)
VH: B1 VH with K54S
VL: B1 VL with S32W, S94A
B9: P6-D11 IgG variant of ARD-103 (antibody, V domains shown)
VH: B1 VH with E6Q, T58E
VL: B1 VL with S26E, S94V, T97G, H98L, V99F
B10: P1-B9 scFv clone (scFv, part only; not given: linker, domain order, tags, V domains shown, not shown: another chain or arm of the molecule; large carriers; small tags and cut ends)
VH: B1 VH with Y60L
VL: DVVMTQSPLSLPVTPGEPASISCRSSQSLVHSNGNTYLQWYLQKPGQSPQLLIYKVSNRFSGVPDRFSGSGSGTDFTLKISRVEAEDVGVYYCGQVTHVPPTFGQGTKLEIK
B11: P3-A1 scFv clone (scFv, part only; not given: linker, domain order, tags, V domains shown, not shown: another chain or arm of the molecule; large carriers; small tags and cut ends)
VH: B1 VH with K54S
VL: B10 VL with S32W, Q39H, G94A, V96N
B12: P3-F7 scFv clone (scFv, part only; not given: linker, domain order, tags, V domains shown, not shown: another chain or arm of the molecule; small tags and cut ends)
VH: B1 VH
VL: B10 VL with G94V
B13: P1-G5 scFv clone (scFv, part only; not given: linker, domain order, tags, V domains shown, not shown: another chain or arm of the molecule; large carriers; small tags and cut ends)
VH: B1 VH with L51I
VL: B10 VL with G94S
B14: P1-A1 scFv clone (scFv, part only; not given: linker, domain order, tags, V domains shown, not shown: another chain or arm of the molecule; large carriers; small tags and cut ends)
VH: B1 VH with K65Q
VL: B10 VL with H31R, Q39H, G94V, V96N
B15: P1-D6 scFv clone (scFv, part only; not given: linker, domain order, tags, V domains shown, not shown: another chain or arm of the molecule; large carriers; small tags and cut ends)
VH: B1 VH with E6Q, K13N, K54F
VL: B10 VL with Q39H, G94L, V96N, T97G, H98Y
B16: P6-D11 scFv clone (scFv, part only; not given: linker, domain order, tags, V domains shown, not shown: another chain or arm of the molecule; large carriers; small tags and cut ends)
VH: B1 VH with E6Q, T58E
VL: B10 VL with S26E, Q39H, G94V, V96N, T97G, H98L, V99F
B17: P1-E6 scFv clone (scFv, part only; not given: linker, domain order, tags, V domains shown, not shown: another chain or arm of the molecule; large carriers; small tags and cut ends)
VH: B1 VH with Y60L
VL: B10 VL with Q27S, Q39H, G94L, V96N, T97G, H98I

Biological target: recombinant hGPC3-His (human) (UniProt P51654)
UniProt P51654, sequence (P51654 25-559): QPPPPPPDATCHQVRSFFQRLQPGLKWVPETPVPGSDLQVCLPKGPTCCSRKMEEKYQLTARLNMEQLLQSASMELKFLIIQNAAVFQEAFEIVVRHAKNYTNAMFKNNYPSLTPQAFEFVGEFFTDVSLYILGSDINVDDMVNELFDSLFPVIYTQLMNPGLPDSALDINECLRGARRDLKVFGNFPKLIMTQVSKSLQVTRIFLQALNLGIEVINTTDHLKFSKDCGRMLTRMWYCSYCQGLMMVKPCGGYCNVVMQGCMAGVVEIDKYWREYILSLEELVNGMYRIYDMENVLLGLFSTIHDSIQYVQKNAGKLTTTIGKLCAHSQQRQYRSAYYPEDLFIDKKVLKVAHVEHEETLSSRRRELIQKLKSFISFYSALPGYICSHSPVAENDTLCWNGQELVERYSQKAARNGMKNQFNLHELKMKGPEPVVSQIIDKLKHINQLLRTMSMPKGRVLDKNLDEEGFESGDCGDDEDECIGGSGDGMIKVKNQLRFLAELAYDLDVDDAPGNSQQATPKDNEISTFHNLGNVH
Assay: Biacore SPR, antibody captured, hGPC3-His analyte, 1:1 model

Kd [nM]	koff [s⁻¹]	kon [M⁻¹ s⁻¹]	fold of ka against ARD-103 [fold]	Binder
3.85	0.000185	48100	–	B1
1.56	0.000172	110000	–	B2
3.95	0.000299	75600	–	B3
4.15	0.000326	78500	–	B4
8.46	0.000724	85600	–	B5
3.62	0.00033	91300	–	B6
3.33	0.00026	78000	–	B7
2.38	0.000196	82300	–	B8
3.02	0.000324	107000	2	B9

Biological target: recombinant human GPC3 protein (R&D Systems) (human) (UniProt P51654)
Assay: Octet (BLI) off-rate ranking of scFv

koff [s⁻¹]	Binder
0.00027	B10
0.000304	B11
0.000319	B12
0.000197	B13
0.0003	B14
0.000193	B15
0.000122	B16
0.00048	B17

Biological target: recombinant hGPC3-His (human) (UniProt P51654)
Assay: Biacore SPR, antibody captured, hGPC3-His analyte, 1:1 model; reference ARD-103 IgG

fold change of ka against ARD-103 [fold]	Binder
2	B9

Biological target: recombinant human GPC3 protein (R&D Systems) (human) (UniProt P51654)
Assay: ELISA, plate-coated recombinant hGPC3, IgG detected with anti-human Fc

EC50 [nM]	Binder
0.1	B4
0.1	B5
0.1	B6
0.1	B7
0.1	B9

Biological target: recombinant human GPC3 protein (R&D Systems) (human) (UniProt P51654)
Assay: binding ELISA on plate-coated recombinant hGPC3, detection with goat anti-human Fc secondary antibody and TMB

EC50 [nM]	Binder
0.11	B1
0.095	B4
0.1	B5
0.11	B6
0.095	B7
0.094	B9
